B1: Flag-tagged wild type LRRK2 (leucine-rich repeat kinase 2) [human] / Full length V5-tagged FADD [not stated] (parent complex)
chain 1: MASGSCQGCEEDEETLKKLIVRLNNVQEGKQIETLVQILEDLLVFTYSERASKLFQGKNIHVPLLIVLDSYMRVASVQQVGWSLLCKLIEVCPGTMQSLMGPQDVGNDWEVLGVHQLILKMLTVHNASVNLSVIGLKTLDLLLTSGKITLLILDEESDIFMLIFDAMHSFPANDEVQKLGCKALHVLFERVSEEQLTEFVENKDYMILLSALTNFKDEEEIVLHVLHCLHSLAIPCNNVEVLMSGNVRCYNIVVEAMKAFPMSERIQEVSCCLLHRLTLGNFFNILVLNEVHEFVVKAVQQYPENAALQISALSCLALLTETIFLNQDLEEKNENQENDDEGEEDKLFWLEACYKALTWHRKNKHVQEAACWALNNLLMYQNSLHEKIGDEDGHFPAHREVMLSMLMHSSSKEVFQASANALSTLLEQNVNFRKILLSKGIHLNVLELMQKHIHSPEVAESGCKMLNHLFEGSNTSLDIMAAVVPKILTVMKRHETSLPVQLEALRAILHFIVPGMPEESREDTEFHHKLNMVKKQCFKNDIHKLVLAALNRFIGNPGIQKCGLKVISSIVHFPDALEMLSLEGAMDSVLHTLQMYPDDQEIQCLGLSLIGYLITKKNVFIGTGHLLAKILVSSLYRFKDVAEIQTKGFQTILAILKLSASFSKLLVHHSFDLVIFHQMSSNIMEQKDQQFLNLCCKCFAKVAMDDYLKNVMLERACDQNNSIMVECLLLLGADANQAKEGSSLICQVCEKESSPKLVELLLNSGSREQDVRKALTISIGKGDSQIISLLLRRLALDVANNSICLGGFCIGKVEPSWLGPLFPDKTSNLRKQTNIASTLARMVIRYQMKSAVEEGTASGSDGNFSEDVLSKFDEWTFIPDSSMDSVFAQSDDLDSEGSEGSFLVKKKSNSISVGEFYRDAVLQRCSPNLQRHSNSLGPIFDHEDLLKRKRKILSSDDSLRSSKLQSHMRHSDSISSLASEREYITSLDLSANELRDIDALSQKCCISVHLEHLEKLELHQNALTSFPQQLCETLKSLTHLDLHSNKFTSFPSYLLKMSCIANLDVSRNDIGPSVVLDPTVKCPTLKQFNLSYNQLSFVPENLTDVVEKLEQLILEGNKISGICSPLRLKELKILNLSKNHISSLSENFLEACPKVESFSARMNFLAAMPFLPPSMTILKLSQNKFSCIPEAILNLPHLRSLDMSSNDIQYLPGPAHWKSLNLRELLFSHNQISILDLSEKAYLWSRVEKLHLSHNKLKEIPPEIGCLENLTSLDVSYNLELRSFPNEMGKLSKIWDLPLDELHLNFDFKHIGCKAKDIIRFLQQRLKKAVPYNRMKLMIVGNTGSGKTTLLQQLMKTKKSDLGMQSATVGIDVKDWPIQIRDKRKRDLVLNVWDFAGREEFYSTHPHFMTQRALYLAVYDLSKGQAEVDAMKPWLFNIKARASSSPVILVGTHLDVSDEKQRKACMSKITKELLNKRGFPAIRDYHFVNATEESDALAKLRKTIINESLNFKIRDQLVVGQLIPDCYVELEKIILSERKNVPIEFPVIDRKRLLQLVRENQLQLDENELPHAVHFLNESGVLLHFQDPALQLSDLYFVEPKWLCKIMAQILTVKVEGCPKHPKGIISRRDVEKFLSKKRKFPKNYMSQYFKLLEKFQIALPIGEEYLLVPSSLSDHRPVIELPHCENSEIIIRLYEMPYFPMGFWSRLINRLLEISPYMLSGRERALRPNRMYWRQGIYLNWSPEAYCLVGSEVLDNHPESFLKITVPSCRKGCILLGQVVDHIDSLMEEWFPGLLEIDICGEGETLLKKWALYSFNDGEEHQKILLDDLMKKAEEGDLLVNPDQPRLTIPISQIAPDLILADLPRNIMLNNDELEFEQAPEFLLGDGSFGSVYRAAYEGEEVAVKIFNKHTSLRLLRQELVVLCHLHHPSLISLLAAGIRPRMLVMELASKGSLDRLLQQDKASLTRTLQHRIALHVADGLRYLHSAMIIYRDLKPHNVLLFTLYPNAAIIAKIADYGIAQYCCRMGIKTSEGTPGFRAPEVARGNVIYNQQADVYSFGLLLYDILTTGGRIVEGLKFPNEFDELEIQGKLPDPVKEYGCAPWPMVEKLIKQCLKENPQERPTSAQVFDILNSAELVCLTRRILLPKNVIVECMVATHHNSRNASIWLGCGHTDRGQLSFLDLNTEGYTSEEVADSRILCLALVHLPVEKESWIVSGTQSGTLLVINTEDGKKRHTLEKMTDSVTCLYCNSFSKQSKQKNFLLVGTADGKLAIFEDKTVKLKGAAPLKILNIGNVSTPLMCLSESTNSTERNVMWGGCGTKIFSFSNDFTIQKLIETRTSQLFSYAAFSDSNIITVVVDTALYIAKQNSPVVEVWDKKTEKLCGLIDCVHFLREVMVKENKESKHKMSYSGRVKTLCLQKNTALWIGTGGGHILLLDLSTRRLIRVIYNFCNSVRVMMTAQLGSLKNVMLVLGYNRKNTEGTQKQKEIQSCLTVWDINLPHEVQNLEKHIEVRKELAEKMRRTSVE
chain 2: MDPFLVLLHSVSSSLSSSELTELKFLCLGRVGKRKLERVQSGLDLFSMLLEQNDLEPGHTELLRELLASLRRHDLLRRVDDFEAGAAAGAAPGEEDLCAAFNVICDNVGKDWRRLARQLKVSDTKIDSIEDRYPRNLTERVRESLRIWKNTEKENATVAHLVGALRSCQMNLVADLVQEVQQARDLQNRSGAMSPMSWNSDASTSEAS

Variants of: B1
Test: ELISA (anti-Flag capture, anti-V5 detection); 15 μg of cell extract loaded in each well; parent: 0.61; read off a plot

Variant	response [anti-V5/Total LRRK2]
chain 1 I2020T	~0.77
chain 1 T1410M	~1.7
chain 1 G2019S	~1.2
chain 1 R1441C	~0.75
chain 1 K544E	~1.2
chain 1 A211V	~0.91

Variants of: B1
Test: co-immunoprecipitation (M2-Flag resin), quantified Western blot band intensity; HEK293T cells; Flag-LRRK2 and V5-FADD at a ratio of 4:1; three independent experiments; parent: 1; read off a plot

Variant	response
chain 1 I2020T	~1.6 norm. to Flag IP
chain 1 T1410M	~2 norm. to Flag IP
chain 1 G2019S	~1.3 norm. to Flag IP
chain 1 R1441C	~1.1 norm. to Flag IP
chain 1 K544E	~1 norm. to Flag IP
chain 1 A211V	~1.7 norm. to Flag IP

— article PMC5104429 (2016)
